In US8404239B2, “Anti-Notch2 NRR antibodies” (Genentech, Inc., priority 2008, dated 2013):

Experiment: Total body weight change in antibody-dosed mice
Format: in vivo, mouse
Source text: (A) Total body weight change (mean+/−standard deviation) vs. time. […] Arrows mark the days of dosing. (B) Immunohistochemical analyses of small intestines. […] In each row as indicated, staining is shown for haemotoxylin and eosin (H & E), Alcian Blue for mucin and to mark secretory goblet cells, lysozyme to mark Paneth cells, Ki-67 for proliferation and Hes1 as a Notch downstream target. See FIGS. 19 and 20 for analyses of the large intestine at day 7 and of the small intestine at day 2, respectively. Bar=40 μm. (C) Comparison of Notch1- versus Notch2-specific inhibition on small intestinal cell differentiation. Small intestines from the study described in (A) were prepared for Alcian Blue and Ki-67 one day after the final dosing with α-gD, α-NRR1 or α-NRR2, as indicated. Bar=50 μm.
(B) Immunohistochemical analyses of small intestines from mice treated as in (A), using Alcian Blue for mucin to mark secretory goblet cells.

B1: anti-NRR2: affinity matured form of Antibody D, phage library-derived human anti-Notch2 NRR monoclonal antibody (antibody, V domains shown)
VH: EVQLVESGGGLVQPGGSLRLSCAASGYTFSSYGMSWVRQAPGKGLEWVSYIYPYSGATYYADSVKGRFTISADTSKNTAYLQMNSLRAEDTAVYYCARHSGYYRISSAMDVWGQGTLVTVSA
VL: DIQMTQSPSSLSASVGDRVTITCRASQNIKRFLAWYQQKPGKAPKLLIYGASTRESGVPSRFSGSGSGTDFTLTISSLQPEDFATYYCQQYYRSPHTFGQGTKVEIKR
First experiment (FIG. 15A)
  total body weight change: weight gains
Second experiment, 5 mg/kg (FIG. 24A)
  effect on weight: little or no effect
